Experimental data as given in publication PMC4338599.

Tests used:
Test in all cases: SPR
[1] = biological target: Ku70-Ku80 heterodimer (Ku) (UniProt P12956+P13010)
[2] = biological target: Ku70-Ku80 heterodimer (Ku);PAXX WT (PAXX1-204, C9orf142) (human?;human) (UniProt P12956+P13010+Q9BUH6)
[3] = biological target: Ku70-Ku80 heterodimer (Ku);PAXX V199A/F201A V199A;F201A (human?;human) (UniProt P12956+P13010+Q9BUH6)
Sequence of Ku70-Ku80 heterodimer (Ku);PAXX V199A/F201A V199A;F201A (human?;human) (P12956 whole entry, chain 1 of 3): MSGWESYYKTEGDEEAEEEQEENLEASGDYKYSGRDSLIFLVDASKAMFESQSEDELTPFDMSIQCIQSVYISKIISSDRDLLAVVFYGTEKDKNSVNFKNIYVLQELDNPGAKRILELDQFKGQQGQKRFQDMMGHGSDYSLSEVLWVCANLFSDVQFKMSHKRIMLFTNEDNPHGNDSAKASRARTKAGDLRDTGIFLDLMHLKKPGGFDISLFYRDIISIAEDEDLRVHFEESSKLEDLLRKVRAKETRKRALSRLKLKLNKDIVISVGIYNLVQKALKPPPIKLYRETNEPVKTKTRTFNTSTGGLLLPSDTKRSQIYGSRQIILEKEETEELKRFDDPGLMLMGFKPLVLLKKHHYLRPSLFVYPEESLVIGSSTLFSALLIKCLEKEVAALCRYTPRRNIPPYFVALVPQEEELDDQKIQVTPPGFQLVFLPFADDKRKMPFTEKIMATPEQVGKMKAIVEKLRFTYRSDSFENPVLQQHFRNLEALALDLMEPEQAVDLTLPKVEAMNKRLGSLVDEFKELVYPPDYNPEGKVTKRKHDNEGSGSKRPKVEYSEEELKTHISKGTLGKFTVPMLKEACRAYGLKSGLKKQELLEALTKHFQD
Sequence of Ku70-Ku80 heterodimer (Ku);PAXX V199A/F201A V199A;F201A (human?;human) (P13010 whole entry, chain 2 of 3): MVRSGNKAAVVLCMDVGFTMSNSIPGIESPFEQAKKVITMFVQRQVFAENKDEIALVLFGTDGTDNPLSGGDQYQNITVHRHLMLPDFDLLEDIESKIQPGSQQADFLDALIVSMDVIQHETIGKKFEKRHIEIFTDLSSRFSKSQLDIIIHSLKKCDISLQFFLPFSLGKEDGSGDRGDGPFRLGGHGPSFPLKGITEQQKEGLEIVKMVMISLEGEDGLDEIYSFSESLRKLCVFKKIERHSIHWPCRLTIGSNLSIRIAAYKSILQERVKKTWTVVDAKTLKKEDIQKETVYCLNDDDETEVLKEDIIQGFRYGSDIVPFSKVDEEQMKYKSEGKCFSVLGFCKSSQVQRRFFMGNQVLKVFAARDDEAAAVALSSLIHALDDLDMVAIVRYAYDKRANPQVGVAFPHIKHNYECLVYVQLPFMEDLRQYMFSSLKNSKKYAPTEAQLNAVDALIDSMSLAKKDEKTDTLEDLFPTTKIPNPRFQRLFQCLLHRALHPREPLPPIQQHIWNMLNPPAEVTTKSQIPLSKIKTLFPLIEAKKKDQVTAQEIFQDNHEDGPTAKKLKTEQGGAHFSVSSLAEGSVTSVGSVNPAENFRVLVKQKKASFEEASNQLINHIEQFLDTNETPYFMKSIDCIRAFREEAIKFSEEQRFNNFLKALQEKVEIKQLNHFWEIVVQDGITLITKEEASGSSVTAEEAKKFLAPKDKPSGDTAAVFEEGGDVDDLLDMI
Sequence of Ku70-Ku80 heterodimer (Ku);PAXX V199A/F201A V199A;F201A (human?;human) (Q9BUH6 whole entry V199A/F201A, chain 3 of 3): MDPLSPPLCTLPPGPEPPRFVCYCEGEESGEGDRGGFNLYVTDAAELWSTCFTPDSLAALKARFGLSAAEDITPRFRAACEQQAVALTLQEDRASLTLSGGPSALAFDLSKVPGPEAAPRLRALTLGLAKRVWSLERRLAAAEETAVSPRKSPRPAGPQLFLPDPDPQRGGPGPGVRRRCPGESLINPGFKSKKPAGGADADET

Sequence of Ku70-Ku80 heterodimer (Ku);PAXX WT (PAXX1-204, C9orf142) (human?;human) (P12956 whole entry, chain 1 of 3): as the sequence (P12956 whole entry, chain 1 of 3) above
Sequence of Ku70-Ku80 heterodimer (Ku);PAXX WT (PAXX1-204, C9orf142) (human?;human) (P13010 whole entry, chain 2 of 3): as the sequence (P13010 whole entry, chain 2 of 3) above
Sequence of Ku70-Ku80 heterodimer (Ku);PAXX WT (PAXX1-204, C9orf142) (human?;human) (Q9BUH6 whole entry, chain 3 of 3): as the sequence (Q9BUH6 whole entry V199A/F201A, chain 3 of 3) above, with A199V, A201F counted along it
Sequence of Ku70-Ku80 heterodimer (Ku) (P12956 whole entry, chain 1 of 2): as the sequence (P12956 whole entry, chain 1 of 3) above
Sequence of Ku70-Ku80 heterodimer (Ku) (P13010 whole entry, chain 2 of 2): as the sequence (P13010 whole entry, chain 2 of 3) above

Sequence: ATATATCCATGGCTGCCTCACAAACTTCACAAACTGTTGCATCTCACGTTCCTTTTGCAGATTTGTGTTCAACTTTAGAACGAATACAGAAAAGTAAAGGACGTGCA (double strand) [107-bp biotinylated LIG4 PCR fragment]
- binding [1]: binds
- binding [2]: binds
- binding [3]: no binding
